What is called IC50 is the concentration at which inhibition is half-maximal.

The values that follow come from patent publication US20220072087A1, “SPECIFIC COMBINATION THERAPY FOR TREATMENT OF PANCREATIC CANCER” (BioLineRx Ltd., priority 2019, published 2022).

Bridge positions count the residues as written; N and C are the ends. Square brackets hold non-standard residues; d marks the D form. * marks the point of attachment. 2Nal = N[C@@H](Cc1ccc2ccccc2c1)C(=O)O; Benzoyl(4-F) = O=C(c1ccc(F)cc1)*; Cit = NC(=O)NCCC[C@H](N)C(=O)O

Data set [1] has as its target CXCR4 (Homo sapiens, UniProt P61073). As to conditions: read-out: IC50 (binds to CXCR4 with high affinity); cited from earlier work.
Data set [2] in a line: solubility of BL-8040 powder. It counts as physicochemical.
In data set [3] the test system is human keratinocytes. As to conditions: cited from earlier work.
Data set [4] concerns normal human hematopoietic cells. As to conditions: cited from earlier work.

CXCR4, sequence (P61073 whole entry, species assumed): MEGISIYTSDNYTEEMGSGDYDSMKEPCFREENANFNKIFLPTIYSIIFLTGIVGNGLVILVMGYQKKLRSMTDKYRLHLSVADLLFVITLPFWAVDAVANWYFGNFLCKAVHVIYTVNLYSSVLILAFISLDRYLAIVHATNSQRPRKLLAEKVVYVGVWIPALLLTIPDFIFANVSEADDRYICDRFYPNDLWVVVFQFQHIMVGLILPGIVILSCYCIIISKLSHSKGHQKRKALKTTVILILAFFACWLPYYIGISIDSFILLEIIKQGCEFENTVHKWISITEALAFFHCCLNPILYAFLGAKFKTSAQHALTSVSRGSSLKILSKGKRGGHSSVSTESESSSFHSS

Take “BL-8040 ({Benzoyl(4-F)}-RR[2Nal]CY[Cit]K[dK]PYR[Cit]CR-NH2; disulfide 4-13 (inferred))”: the IC50 in data set [1] is 0.54 to 4.5 nM. The solubility entry in data set [2] (in 0.45% Sodium Chloride (half normal saline)) and in data set [2] (in water) was “freely soluble” in each case. In addition, the effect on viability entry in data set [3] and in data set [4] was “did not affect the viability” throughout.
